# Measured values as given in patent US20060003434.
# System: T1, FLAG-Heme1B (human Eme1B, FLAG tagged at the C terminus)
# T1 sequence: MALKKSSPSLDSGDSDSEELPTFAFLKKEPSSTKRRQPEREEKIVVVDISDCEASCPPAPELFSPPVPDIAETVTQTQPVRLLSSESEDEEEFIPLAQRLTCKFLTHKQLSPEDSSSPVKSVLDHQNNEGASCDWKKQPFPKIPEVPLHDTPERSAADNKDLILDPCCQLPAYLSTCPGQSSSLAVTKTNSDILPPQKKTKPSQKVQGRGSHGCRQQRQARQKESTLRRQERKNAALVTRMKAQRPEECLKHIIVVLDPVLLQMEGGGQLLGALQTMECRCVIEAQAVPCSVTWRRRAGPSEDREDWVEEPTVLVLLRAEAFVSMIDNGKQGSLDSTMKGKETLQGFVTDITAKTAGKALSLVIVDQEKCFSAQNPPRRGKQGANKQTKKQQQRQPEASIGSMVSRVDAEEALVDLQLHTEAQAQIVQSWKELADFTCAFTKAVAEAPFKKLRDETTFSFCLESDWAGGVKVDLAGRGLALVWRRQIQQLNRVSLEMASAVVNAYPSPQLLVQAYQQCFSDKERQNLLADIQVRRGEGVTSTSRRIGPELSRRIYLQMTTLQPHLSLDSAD
substance,measurement,value
"3HaMus81 (triple hemagglutinin (3Ha) tagged Hmus81), wild type",endonuclease activity of immune-precipitates on a 3' flap substrate,The activity of 3HaMus81 was greatly increased in cells that had been co-transfected with FLAG-Eme1B
